{
  "source": "paper PMC7841527",
  "key": {"[1]": {"molecular_target": "FLAG-tagged HDAC4 p.Glu247Gly variant (human)", "sequence (P56524 whole entry E247G)": "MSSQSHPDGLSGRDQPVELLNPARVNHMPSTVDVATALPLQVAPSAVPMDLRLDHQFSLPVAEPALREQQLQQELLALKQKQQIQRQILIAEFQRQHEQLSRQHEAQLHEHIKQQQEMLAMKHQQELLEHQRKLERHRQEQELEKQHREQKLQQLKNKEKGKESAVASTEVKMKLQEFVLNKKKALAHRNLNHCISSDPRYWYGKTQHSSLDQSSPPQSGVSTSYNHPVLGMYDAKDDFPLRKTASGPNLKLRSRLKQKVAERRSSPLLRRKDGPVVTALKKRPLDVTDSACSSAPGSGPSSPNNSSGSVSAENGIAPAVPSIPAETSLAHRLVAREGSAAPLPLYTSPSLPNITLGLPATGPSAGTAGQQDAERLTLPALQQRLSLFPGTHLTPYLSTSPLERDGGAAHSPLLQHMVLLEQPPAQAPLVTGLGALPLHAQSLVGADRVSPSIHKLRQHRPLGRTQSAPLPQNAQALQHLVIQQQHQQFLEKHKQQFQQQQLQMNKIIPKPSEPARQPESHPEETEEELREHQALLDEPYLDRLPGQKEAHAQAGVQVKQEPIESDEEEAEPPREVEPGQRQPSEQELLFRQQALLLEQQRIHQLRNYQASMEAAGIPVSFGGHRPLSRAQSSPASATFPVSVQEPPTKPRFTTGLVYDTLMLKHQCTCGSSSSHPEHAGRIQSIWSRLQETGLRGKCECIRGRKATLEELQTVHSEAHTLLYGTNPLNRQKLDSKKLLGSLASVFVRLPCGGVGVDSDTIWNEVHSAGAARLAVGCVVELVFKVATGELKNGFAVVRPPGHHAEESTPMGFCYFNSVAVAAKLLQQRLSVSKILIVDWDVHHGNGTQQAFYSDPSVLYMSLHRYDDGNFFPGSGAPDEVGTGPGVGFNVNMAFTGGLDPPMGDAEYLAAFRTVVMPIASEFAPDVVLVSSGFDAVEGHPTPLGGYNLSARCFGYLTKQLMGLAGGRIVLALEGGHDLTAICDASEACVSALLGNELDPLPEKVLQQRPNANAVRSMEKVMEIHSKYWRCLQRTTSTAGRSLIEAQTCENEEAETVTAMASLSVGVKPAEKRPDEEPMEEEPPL", "test": "co-IP; HEK293 cells co-transfected with FLAG-HDAC4 (native or variant) and HA-14-3-3β; ~48 h post-transfection cleared extracts immunoprecipitated with anti-FLAG antibody; western blot with anti-HA; blots quantified with ImageJ relative to HDAC4 and 14-3-3β loading controls"}, "[2]": {"molecular_target": "FLAG-tagged HDAC4 p.Thr244Lys variant (human)", "sequence (P56524 whole entry T244K)": "as the sequence (P56524 whole entry E247G) above, with T244K, G247E counted along it", "test": "co-IP; HEK293 cells co-transfected with FLAG-HDAC4 (native or variant) and HA-14-3-3β; ~48 h post-transfection cleared extracts immunoprecipitated with anti-FLAG antibody; western blot with anti-HA; blots quantified with ImageJ relative to HDAC4 and 14-3-3β loading controls"}},
  "data": [
    {"substance": "14-3-3β (hemagglutinin [HA]-tagged) (from UniProt P31946 1-246) (natural protein)", "values": [
      {"measurement": "fold reduction of binding compared to native HDAC4", "setting": "[1]", "result": 2, "unit": "fold"},
      {"measurement": "fold reduction of binding compared to native HDAC4", "setting": "[2]", "result": 2, "unit": "fold"}
    ]}
  ]
}
